Columns and labels:
Test in all cases: radioligand binding
wild-type EGF receptor = wild-type EGF receptor (UniProt P00533)
G574V-EGF receptor = G574V-EGF receptor (UniProt P00533)
R84K-EGF receptor = R84K-EGF receptor (UniProt P00533)
A265V-EGF receptor = A265V-EGF receptor (UniProt P00533)

## 125I-EGF (ligand)
wild-type EGF receptor
  EC50: 0.75 nM
G574V-EGF receptor
  EC50: 0.17 nM
R84K-EGF receptor
  EC50: 0.036 nM
A265V-EGF receptor
  EC50: 0.28 nM

— article PMC10945275
